Assay results published in patent publication CN115703837A (DONGGUAN PENGZHI BIOTECHNOLOGY CO LTD, dated 2023).
Blank lines part the entries; values can stand above or below the molecule they belong to.

Tests used:
生长刺激表达基因2蛋白(ST2)抗原 [1] = target: T1, 生长刺激表达基因2蛋白(ST2)抗原 (UniProt Q01638-2 19-328, limits assumed); assay: BLI, AMC sensor, antibody immobilised at 10 ug/ml, ST2 antigen in serial dilution
T1 construct: also called sST2; IL1RL1
T1 sequence (looked up): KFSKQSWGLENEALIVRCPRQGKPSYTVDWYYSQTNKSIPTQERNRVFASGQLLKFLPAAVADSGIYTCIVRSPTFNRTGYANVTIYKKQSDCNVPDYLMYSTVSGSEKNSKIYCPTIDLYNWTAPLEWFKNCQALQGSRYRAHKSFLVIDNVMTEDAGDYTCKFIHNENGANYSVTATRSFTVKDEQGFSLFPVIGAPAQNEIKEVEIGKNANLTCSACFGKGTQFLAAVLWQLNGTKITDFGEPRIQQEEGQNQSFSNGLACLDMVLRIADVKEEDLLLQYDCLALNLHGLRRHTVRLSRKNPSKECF

生长刺激表达基因2蛋白(ST2)抗原 [2] = target: T1, 生长刺激表达基因2蛋白(ST2)抗原; assay: sandwich ELISA, antibody at 0.000 ng/ml (blank, no antibody), ST2 antigen, HRP anti-ST2 mAb detection
生长刺激表达基因2蛋白(ST2)抗原 [3] = target: T1, 生长刺激表达基因2蛋白(ST2)抗原; assay: sandwich ELISA, antibody at 1.953 ng/ml captured on goat anti-mouse IgG, ST2 antigen, HRP anti-ST2 mAb detection
生长刺激表达基因2蛋白(ST2)抗原 [4] = target: T1, 生长刺激表达基因2蛋白(ST2)抗原; assay: sandwich ELISA, antibody at 15.625 ng/ml captured on goat anti-mouse IgG, ST2 antigen, HRP anti-ST2 mAb detection
生长刺激表达基因2蛋白(ST2)抗原 [5] = target: T1, 生长刺激表达基因2蛋白(ST2)抗原; assay: sandwich ELISA, antibody at 7.813 ng/ml captured on goat anti-mouse IgG, ST2 antigen, HRP anti-ST2 mAb detection
生长刺激表达基因2蛋白(ST2)抗原 [6] = target: T1, 生长刺激表达基因2蛋白(ST2)抗原; assay: sandwich ELISA, antibody at 31.250 ng/ml captured on goat anti-mouse IgG, ST2 antigen, HRP anti-ST2 mAb detection
生长刺激表达基因2蛋白(ST2)抗原 [7] = target: T1, 生长刺激表达基因2蛋白(ST2)抗原; assay: sandwich ELISA, antibody at 3.906 ng/ml captured on goat anti-mouse IgG, ST2 antigen, HRP anti-ST2 mAb detection

- Kd (生长刺激表达基因2蛋白(ST2)抗原 [1]): 7.3 nM
- koff (生长刺激表达基因2蛋白(ST2)抗原 [1]): 0.00723 s⁻¹
- kon (生长刺激表达基因2蛋白(ST2)抗原 [1]): 990000 M⁻¹ s⁻¹
- OD450 (ref 630) (生长刺激表达基因2蛋白(ST2)抗原 [2]): 0.046 OD
- OD450 (ref 630) (生长刺激表达基因2蛋白(ST2)抗原 [3]): 0.163 OD
- OD450 (ref 630) (生长刺激表达基因2蛋白(ST2)抗原 [4]): 0.665 OD
- OD450 (ref 630) (生长刺激表达基因2蛋白(ST2)抗原 [5]): 0.37 OD
- OD450 (ref 630) (生长刺激表达基因2蛋白(ST2)抗原 [6]): 1.51 OD
- OD450 (ref 630) (生长刺激表达基因2蛋白(ST2)抗原 [7]): 0.26 OD
Molecule: 对照 (antibody)

- Kd (生长刺激表达基因2蛋白(ST2)抗原 [1]): 0.761 nM
- koff (生长刺激表达基因2蛋白(ST2)抗原 [1]): 0.000745 s⁻¹
- kon (生长刺激表达基因2蛋白(ST2)抗原 [1]): 979000 M⁻¹ s⁻¹
B1: Anti-ST2 11F9 (antibody, V domains shown)
VH: QIQLVQSGPELKKPGETVKLSCKASGYTFTDYSIHWVKQAPGKGLKWMGWIHTETGEPTYADDFKGRFAFSLETSASTAYFQINNLRNEDTATYFCARDDGLDYWGQGTSVTVSS
VL: DVQMIQSPSSLSASLGDIVTMTCQASQDTNINLNWFQQKPGKAPELLIYDTNNLEDGVPSRFSGSRYGTDFTLTISSLEDEDMATYFCLQHSYLPLTFGAGTKLELK
